Results: patent publication US20250145697A1 (WASHINGTON UNIVERSITY, published 2025)
One block for each binder: values may come before it.

Experiments:
[1] = target: T1, recombinant alipidated human ApoE2 (human, UniProt P02649 19-317); assay: ELISA, plate coated with 0.5 ug/ml recombinant apoE2, HRP goat anti-mouse detection, OD450
T1 construct: mature; full length recombinant protein made in E. coli or bought
Protocol: (§1) ELISA plates were coated with 0.5 μg/ml of recombinant apoE2 (square), apoE3 (open circle), or apoE4 (closed circle). Then different concentrations of (A) HJ151, (B) HJ153, (C) HJ154, or (D) HJ156 were loaded on the plates. Horse-radish peroxidase labeled goat anti-mouse secondary antibodies were used to detect binding. […] HJ151 is specific for ApoE4 and HJ156 binds only ApoE3 and ApoE4. FIG. 5E-H are graphs depicting surface plasmon resonance profiles for various antibodies. Anti-ApoE antibodies were serially diluted 3-fold (starting at 100 nM for HJ153 (E), and 1000 nM for HJ151 (F), and […] (G)) for detection of binding to biotinylated-recombinant apoE4 captured on a streptavidin chip. Samples were injected at a flow rate of 30 μl/minute. (H) Apparent KD values of HJ151, HJ153 and HJ156 were calculated based on the SPR experiment.
(§2) ELISA plates were coated with 0.5 μg/ml of recombinant apoE2, apoE3, or apoE4. Then different concentrations of HJ151 (FIG. 5A), HJ153 (FIG. 5B), HJ154 (FIG. 5C), or HJ156 (FIG. 5D) were loaded on the plates. Horse-radish peroxidase labeled goat anti-mouse secondary antibodies were used to detect binding. […] HJ151 is specific for ApoE4 and HJ156 binds only ApoE3 and ApoE4. Surface plasmon resonance profiles for various antibodies was also performed.

[2] = target: T2, heat-induced aggregates of ApoE2 (human, UniProt P02649 19-317); assay: ELISA: pellet of heat-aggregated ApoE2 coated at 0.5 ug/ml, antibody titrated, HRP goat anti-mouse IgG, OD650
T2 construct: mature; aggregated state of the recombinant protein; also called heat treated ApoE2
T2 sequence (P02649 19-317 R176C): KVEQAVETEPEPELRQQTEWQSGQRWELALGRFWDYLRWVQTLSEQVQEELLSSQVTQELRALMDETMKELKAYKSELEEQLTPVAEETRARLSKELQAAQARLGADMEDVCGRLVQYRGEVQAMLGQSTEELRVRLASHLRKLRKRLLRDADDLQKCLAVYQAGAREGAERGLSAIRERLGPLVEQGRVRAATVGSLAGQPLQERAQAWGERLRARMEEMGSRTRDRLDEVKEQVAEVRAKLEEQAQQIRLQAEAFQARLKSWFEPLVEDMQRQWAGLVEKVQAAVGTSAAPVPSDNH
Protocol: (§3) The aggregated ApoE was induced by incubating ApoE at 1 mg/ml concentration at 40° C. for 24 hours. The aggregates then were recovered in the pellet fraction following ultracentrifugation at 186,000 g for 1 hour. For ELISA, the untreated ApoE or heat-induced aggregates of ApoE were coated directly to ELISA plates at 0.5 μg/ml overnight at 4° C. After three washes with PBS, the wells were blocked with 1% BSA-PBS for 1 hour at room temperature with shaking at 500 rpm. The blocked wells were washed once with PBS and subsequently loaded with antibodies at serial concentrations (starting at 100 nM with 5-fold dilutions thereafter). Bound antibodies were detected with HRP-labeled goat anti-mouse IgG (Jackson Immunoresearch) and visualized with TMB substrate at OD₆₅₀ (reaction stopped with BioFX stop solution).

[3] = target: T3, recombinant alipidated human ApoE3 (human, UniProt P02649 19-317); assay: ELISA: untreated ApoE3 coated at 0.5 ug/ml, antibody titrated, HRP goat anti-mouse IgG, OD650
T3 construct: mature; full length recombinant protein made in E. coli or bought
Protocol: as §3
Target sequence in this assay (P02649 19-317): as the sequence (P02649 19-317 R176C) above, with C158R counted along it

[4] = target: T4, heat-induced aggregates of ApoE4 (human, UniProt P02649 19-317); assay: ELISA: ApoE4 incubated at 40 C for 24 hr on the plate, antibody titrated, OD650
T4 construct: mature; aggregated state of the recombinant protein; also called ApoE4 incubated at 40 C for 24 hr; heat-treated ApoE4
Protocol: (§4) 1: untreated ApoE4. 2: ApoE4 that has been incubated at 40° C. for 24 hr. Supernatant(S) and pellet (P) from ultracentrifugation were resolved on SDS-PAGE and stained by Coomassie blue. (D) Binding of HJ156 to different preparations of ApoE4 loaded at the same concentration on the ELISA plate. Sup of untreated: Supernatant fraction of untreated ApoE4 from ultracentrifugation. Sup/Pel of 24h 40C: Supernatant/pellet fraction of ApoE4 incubated at 40° C. for 24 hour. (E) Binding of HJ156 to untreated and 40° C. incubated ApoE4 with and without denaturation by 1% SDS or 4M guanidine HCl.
(§5) In order to test whether HJ151 and HJ156 bind to some form of ApoE in the brain, unfixed frozen brain sections from APPPS1/APOE4 or APPPS1/EKO mice using HJ151 and HJ156 (FIG. 38A). The presence of Aβ plaques was confirmed with Aβ immunostaining using anti-Aβ antibody HJ3.4 on the sections from the same brain. […] Next, the ability of HJ156 to bind to an aggregated form of ApoE induced by incubation at 40° C. was queried. The binding of untreated ApoE to HJ151, HJ153 or HJ156 was compared to the binding of ApoE incubated at 40° C. to HJ151, HJ153 or HJ156. HJ153 bound to untreated ApoE or ApoE incubated at 40° C. similarly while HJ151 and HJ156 preferentially bound to ApoE incubated at 40° C. (FIG. 38B). […] Solubilization of the ApoE aggregates reduced their binding to HJ156. […]

[5] = target: T3, recombinant alipidated human ApoE3; assay: ELISA, plate coated with 0.5 ug/ml recombinant apoE3, HRP goat anti-mouse detection, OD450
Protocol: as §1, §2

[6] = target: T4, heat-induced aggregates of ApoE4; assay: ELISA: total ApoE4 incubated at 40 C for 24 h loaded on the plate, HJ156 titrated, OD650
Target sequence in this assay (P02649 19-317 C130R): as the sequence (P02649 19-317 R176C) above, with C112R, C158R counted along it

[7] = target: T4, heat-induced aggregates of ApoE4; assay: ELISA: pellet fraction of ApoE4 incubated at 40 C for 24 h loaded at the same concentration on the plate, HJ156 titrated, OD650
[8] = target: T4, heat-induced aggregates of ApoE4; assay: ELISA: ApoE4 incubated at 40 C for 24 h, no denaturant, on the plate, HJ156 titrated, OD650
Protocol: as §4, §5
Target sequence in this assay (P02649 19-317 C130R): as the sequence (P02649 19-317 R176C) above, with C112R, C158R counted along it

EC50 (read off the curve) [1]: ~0.3 nM | EC50 (read off the curve) [2]: 0.16 to 0.2 nM | EC50 (read off the curve) [3]: ~0.5 nM
B1: HJ154 (antibody, V domains shown)
VH: QVQLQQPGTEFVMSGASVMLSCKASGYIFTNYWLHWVKQRPGHGLEWIGEIDPSDSYSICNDNFKGKSTLTVDKSSSTAYMQLSSLTSEDSAVYYCAGSLGRVGLAYWGQGTLVTVST
VL: QIVLTQSPAIMSASPGEKVTMSCSASSSVSNMYWYQQKPGSSPKSWIYRTSNLASGVPARFSGSGSGTSYSLTISNMEAEDAATYYCQHYQNYPLTFGAGTKLELKR
notes: murine monoclonal antibody from hybridoma; also called HJ154B (biotinylated)

EC50 (read off the curve) [4]: ~0.2 nM
B2: HJ151 (antibody, V domains shown)
VH: QVQLQQSGAELVRPGASVTLSCKASGYTFTDYEMHWVKQTPVHGLEWIGVIDPEKGGTAYNQKFKGKAILTADKSSSTAYMDLRSLTSEDSAVYYCLKDSWGQGTTLTVSS
VL: DVLMTQTPLSLPVSLGDQASISCRSSQTIVHSDGNTYLEWYLQKPGQSPKLLIYKVSNRFSGVPDRFSGSGSGTYFTLKISRVEAEDLGVYYCFQGSHVPCTFGGGTKLEIKR
notes: murine monoclonal antibody from hybridoma; also called HJ151B (biotinylated)

EC50 (read off the curve) [5]: ~0.9 nM | EC50 (read off the curve) [6]: ~0.1 nM | EC50 (read off the curve) [7]: ~0.1 nM | EC50 (read off the curve) [8]: ~0.1 nM
B3: HJ156 (antibody, V domains shown)
VH: QVQLQQSGPELVKPGASVKISCKASGYIFTDYYINWVKRRPGQGLEWIGWIFPGSGVSYYNEQFKGKATLTVDKPSNTAYIFLSRLTSEDSAVYFCARYYSSSPFAYWGQGTLVTVSA
VL: DVLMTQTPLSLPVSLGDQASISCRSSQNIIHSNGNTYLEWFLQRPGQSPELLIYKVSNRFSGVPDRFSGSGSGTDFTLKISRVEAEDLGVYYCFQGSHVPYTFGGGTKLEIKR
notes: murine monoclonal antibody from hybridoma; also called HJ156B (biotinylated)
